Experiment: label from the status in PepcDB records
In the case of “MHFNLPTYLTLLRIVLIPVLTVAFYLPWSGAHVVSGVIFAIAAITDWLDGYLARRMGLATRFGAFLDPVADKLMVAVALVLIVQAEPRPLIALASAIIIGREITIASLREWMAEIGQRKRVEVSALGKWKTTFQMLAITLLLLGLDIPHGGVKTTGELLLVVSATLTLWSMIVYLQAAMPVFKAGAEAE”, the protein production is reported as “not failed”.
For “MHGPPESQEPCGTFGPDETTGATSTAASRGEARRLPRGGVLWALVDCNNFYASCERLFRPDLKGRPVVVLSNNDGCVIARSAEAKALGVPMGAPEFKVRDMLRAHDVAVFSSNYALYGDLSQRVMRTLATVVPRVEVYSIDEAFIPLPAALAADPVAVGRTLRQRVAQWVGIPVSVGVGPTRTLAKLANRLSKQDSAYGNVFDLTPETVDMDRVLASVDVGDVWGVGRRSAEMLRGRGILTARALRDADPLWVRQRMTVTGWRTQQELRGMPCLTDDDLPVPRRSIRSSRSFGQMVRTLEPLREAVATFTARAVAKARAEGLVASCIEVHIRTPRHTERPRYDETTTITLPCPTADTGLCIRHALTGLERIFREGYLYAKAGVTLFGLEPAAGRQGSLLDLLDGSHEHKARRERLMAALDAVNLRHGRGSIRHGAEGDPGAAWHMSQKYRSPRYTTAWEELPEVLCR”, the protein production was “failed”.
With “MHHYRVSGWTLATEIPLPHLFPCSAPAGEAAADITLRQGPVPPPPVPLRLDRDGIQVGADGHTVIDIPNCVRIGLTGGRDIMVDPAPGASWPEIQTWLLGPGLGVICHQRGVLPLHACAIRTGKGGLAIVGNSGAGKSTTATALVQRGHRLLGDDVLVVDPDTGLAQPCFPMVKLWDSSRSALDIGQEGQQSVGGKIGKWHMPMLAAFDPVPRPLSAIVHLRADPAARRPVLTRWPRPHAAAVLDAMTYRVYLADALHGRRHVLSAATRLAAHVPVWELVRTADFADLAEMLDMLEGLAGALEHHHHHH” the protein production was “failed”.
With “MHIHILGICGTFMGSLALLARALGHTVTGSDANIYPPMSTQLEQAGVTIEEGYLIAHLQPAPDLVVVGNAMKRGMDVIEYMLDTGLRYTSGPQFLSEQVLQSRHVIAVAGTHGKTTTTTMLAWILHYAGIDAGFLIGGVPLVNTTDTNLQQVFAHSSYLGTEKDDSDNSVNTGYFVIEADEYDSAFFDKRSKFVHYRPRTAILNNLEFDHADIFADLDAIQTQFHHMVRMIPSTGKIIMPAATISLEDTLAKGVWTPIWRTSVIDSTISSVRREDSPLENSQAENSSDWQAELISADGSQFTVSFNDNKEATALVNWSMSGLHNVNNALVAIAAAYNIGVSVKTACAALSAFAGIKRRMELIGDVNDILVFDDFAHHPTAITTTLDGAKKKLADRRLWAIIEPRSNTMKMGIHQDSLAQSATLADHTLWYEPTGLEWGLKEVIDNATIANPSIGSQQVLSSVDDIIKHICTHAKAGDAIVIMSNGGFEGIHQRLLTALGNIVAIL” the protein production was “not failed”.
In the case of “MHLGSTFYDETELRSLPFRHLGANVKIKRTAGLFFVENISIMDDARIDDFTIIVASREHVEIGCNVHIASQCYISGSDGFVMEDFSGLAPGVKIYTSSDDYTGEKMTNPTLPRHLIGGPAGKVVLRKHVIIGSNSVVLPKVTIEEGSSVGSLSLVNKSLPAWGVYAGIPVRRLRDRSQNILILEKELGASRA”, the protein production is reported as “failed”.
In the case of “MHLGVIGATGTIGSRVVTEALARGHHVTAFTRDSTQIDEDRGNVVWKSLDVLDAASVAAGISGLDVLISGFQPGNAAKDIADTVARSIADPTVYATAARSLLKALESHPRTRLIVIGGAGSLEIEPGVVRADSDELLHSSLDALGLPRQYAAAVRGHRDALNVLRTSNRLWTYFSPAEDIAPGERTGRFRTGGDQPVLDAEGRSRISVEDAAVALVDEAELPRFVQRRFTIGY”, the protein production is reported as “failed”.
In the case of “MHLLVVEDDDIVRMLMVEVLDDLGYKVIEAEDATAALRVLEDPSQALALMMTDVGLPDMRGEELAGKARELRPLLPVLFASGYADSFNVPEGMHLIGKPFSIDQLRDTVVGILGTP”, the protein production is reported as “failed”.
In the case of “MHLQPQKKKKHLQTFLHPQQTQVLQTICLQPRQKGRVDSQLIVLQAQQQQALQVPVEAVNCSENMRRLSISEDFSKALQILYNLGKISDNRESFDNTXFYEENLGKALRVNDNTVKPSAPVSTQESLRTVELTEGFRHQCIFDFCRRRDILRYFFDPIKANLSKGHGSNFDKSDSVACTLHPYTPYPHLQQLWVYYMLTYTQYLPLRLVGGQNRCEGRLEVRHEGEWGTVCDDRWNIKNARVVCRLLGCGPALGAPGRSHFGPGTGPILMNEVRCSGREDSLESCAHAGWTRHNCHHREDASVICAGPADSLVPKDNAQLSCLPHLFQAVIDRGYLRRLGYSSWDIHLNDKMCRPQVTGRYLIFNIPYGHCGTVMQKHQGSLSYSNSIRGRTQGHPGRVIVRHKVPQVKFTCKVDGQSAVEIVHGSDTKDEASYDVSISFLQSPVSQNTGGRAPLASQREEVFLQATLHSHNPNLRLVVDTCVASPDASDFTTVKYDLIQEGCIKDNSYSNLHAPEKNVAQFKFNAFSFLKSYDVVYVQCKVAVCRLGDHSSRCSQGCLNRGRRGAGSAEVREEQTEYFQTVGPLKIHREANQSKVLV”, the protein production is reported as “failed”.
With “MHLRLSTLAGFKTGPRFQSSMSEAESESRAGREEVWIEKYRPQTLDDVMGHENIVGRLKSYVSRNDLSHMLFSGPAGTGKTTCATAIARELYGDDWREHFLELNASDERGIDVVRDRIKNFARTSFGGVEYRIIFLDEADALTSDAQSALRRTMEQFSNNVRFILSCNYSSQIIDPIQSRCAVFRFSPLADDAVAEEIRTIAAEEDIELTEDGLDALVYAADGDMRKAINGLQAASVSGDTVDESAVYAITSTARPEEIRTMVQSALDGDFTASRATLDRLLTEEGIAGGDIIDQLHRSIWEFDIDDDAAVRVLERIGETDYRITRGANERVQLEAMLASLAQGE” the protein production was “failed”.
In the case of “MHLSRCRKCGRVMKGERIDPYRVKLTCSCGFSDFRTMTEKVKTVNPFFQKGGFSPLLESERGKMVLTMQRANREHLEIISLEEISMLVSSDFDLPEVLQHVTAKVATQLKVSVCNIYLREGDEVVLAATHGFDPAFIGKIRIKIGDGITGSVARDGQYISLSRASQDPRYRYFPELQEEKYNSMLSFPIGDKKEVYGVINLNTTSIRSFHEDEIYFVSIIANLILTAIKLRQQVASSRKAAEASA”, the protein production is reported as “failed”.
With “MHMLFYKSYVREFIGEFLGTFVLMFLGEGATANFHTTGLSGDWYKLCLGWGLAVFFGILVSAKLSGAHLNLAVSIGLSSINKFDLKKIPVYFFAQLLGAFVGTSTVYGLYHGFISNSKIPQFAWETSRNPSISLTGAFFNELILTGILLLVILVVVDENICGKFHILKLSSVVGLIILCIGITFGGNTGFALNPSRDLGSRFLSLIAYGKDTFTKDNFYFWVPLVAPCVGSVVFCQFYDKVICPLVDLANNEKDGVDL” the protein production was “not failed”.
In the case of “MHNDQEISDANRDWWDSDAQRYHNDHAAYLNGFHWCPEMLPEREAHLLGDISGLNVLEIGCGSAPCSRWLFDNYDAFVTGFDLSMGMLRHSPTDVPLTQADAVNLPYKDSSFDIAFSAFGAFPFIENLGPVLKDIARCLKPHGKLVFSTNHPMRWIFPDDPTEIGLCAELSYFDRSYTERDKNGKITYAEFHRTMGDWIELLNASGFIIDRLIEPEWPTNLTETWGQWSPLRGRIFPGTAIFVTHCRLEHHHHHH”, the protein production is reported as “failed”.
In the case of “MHNKKWDLRIICAHAFTILIWGTAFPAIRMGLESYTPEHLTLLRLLIASFILLLFSFIYKLRLPDLKDIPAIFIFGALGFTIYHIALNYGEKTVNAGSASLIISVTPIVTAILASVFLNEKMKLNGWLGGVISFAGIALISFSQGDAIQLNSGGLFILLAAISESLFFVFQTSYLKKYGFLPFTIYTILSSTVCMLIFLPGVYQEILAAPLEVNLSVIYLGVFPTVLPYIALAYIISRAGASEATSSLYLTPITACFIAWIWLGEVPTLVSIIGGGITILGIVIAHIPVLRKEKHRNLANNQSV”, the protein production is reported as “failed”.
In the case of “MHNLANLYRTGWPGGVEKDTQKALDLYQKMIDLDVPQGFYDMGAMIGNRAGVKNPATDGLTFLDKAASLGNPPALTELGKFYIYVAKKKDLGLAYTHCAASQGYAPASYELGAYYKIVEHNFPKALVYYQVSVSQGGKSAAFFLSRVFGSETPPASAMWYAPDEKLREAYYSIYKKLEADPLEHHHHHH”, the protein production is reported as “failed”.
In the case of “MHPNIATLLSANLGESRTRHLLSLVSVPDGLPSDAEGRATRAEIAQALNMVLFAGILDRVPTGRAYTDDVAATGGKVVFDHGALRTVKWRDNGALPEGEAAFTRILRPLGYRLNGNYPLDRISMTGRSYAHADAPEGIAQFFVSEFHPERFSDAFREAVGRVTGNSADPLTPRAQTLLWQLDRDGVLTVADGAELIGLLVPCFERQHGVPRLADYETLLRESAEMAWIATEGNAFNHATDRVDDVFGLSEQQKALGRPMKDKVEVSGSGRVKQTAFRADTVRRQFIGAQGETVERDVPGSFYEFITRDRFADAPAASPRVDLGFDAGNAQGIFKMTAAV”, the protein production is reported as “not failed”.
In the case of “MHPTIARMQEVVAKGDESLIHALLAEDVRFMPPTYYKTWTGRDPVAAVLGHVGQVFSEFRYRRIMGEGKDWALEFQCKVGELDAVGVDLITLNEGGLIQDFEVVMRPYKTVGALRDAMNARVMTDARFLKYREALS”, the protein production is reported as “not failed”.
With “MHQQGIRMEGMSDLNALNLEPGEVVGGYTLISRLGSGAMGSVWRVRDDGGTTYAMKILRDSLADESVAGSGSASAALHDPDLKPDVTPRERLRREAMALKKVNHPGVCGIVDMELDDTLAFIVTELIEGKNLKDDVAANGRYVGDDLERLARKLIDATKAVHAAGIVHRDIKPTNVMVSAAGPVLVDFGIAMGEGESHVTRTGLVMGTPGFIAPEIIDGAESDEATDWWSVASVLAFAATGAPVFGTKPMMAVLEREASGNANLSGLPAGTLAAFRSALDPDRTKRCTPDQLLNAIALDALNPAVWQGAQAGPFAAGAIAGGANTIAPAAGTAGETEAVPPFGAAGHVDRNNPRTIWRATDEAAQALTDEATTTLPDSAAPAISDEATVQLAGATVPLTEATTPLTSEATTPLTPVTGEPLLAPTTPLAERTAVLPSPQPTAFPPTPPVQLVGGMAQNGWNPAAADVQATVVDPNIRPALQRVIDQTAQFAPTEALVQQPLAPNPADVKRGEYLQRGVFPLLLLALPLAVLAASMPLIALLAAAAMLWLLLTLAYNTEPQLEREGRRGGERKSSDTWIRAATLPWHIVKALLLSLPRMVLLIVIAIAGTAAATMALALPTQTVYWYFTPERGVPIPLLNDVPLSASGLALGGFMAIGWLVTVFGPQAMMARLGAGVLRGLNPRQAQSPMPLAYDGSPAVPSPAAMAPASATRGKRSTMLFTIWIIVTLALCTLPLTGMAIDWTPLV” the protein production was “failed”.
For “MHRFFATRTSRIISVVLSLTFLAGCSLSEIDRIERQTKDSGEIARRISDTNRAKAQPAVRWMDKPWVSLKPLAPVVANPEEKILPPCQITINRPDGMNLPELGQRITGLCGPRVTITPDAFLVLSPANVRSGTSQQMPGSLPAPDGHGRVSLPYLGAQSPSASVMKQSDKHISTLKWQGDLPGLLDTIGSRLGLSWRVNKGNIVFYQLDTRMFQLVILNTKISSSASVTSGSSSSIGSSGGTNSGVSGESSSAQKTSVDLNSDLYGDIKKTIENMLTPSKGRFWLSSASGTLTVTDTPETLERIGRYIDYQNELLNRQVQLNVQVLSVTQSRKEQFGLDWKLVYQSLNNIGASVTGNLINAADNAFSGGLSILDTATGPAAKFSGSELLIKALSQQGNVSLVTELNRATINLTPVPFQISDQTGYIQSSSTTATANAGTTSSMQTGIITTGLFMSMLPYIQENGDVQLQFAFTLSDKPTIQPFFSRDGNTRTDTPAFKLRSLTQTVNMRAGQTLVLTGADQLDSVANKQGAFTPGNFLFGGGHVGSDTRTTLVILITPVLLR”, the protein production was “failed”.
In the case of “MHSAALLQKVDELPRLPKAIAELLDVVNNEDSTVKAVSEKLSHDPVLSARVLRLANSARFGCSREVGTIDDAVVRLGMQTLRTLVIASAVVGAVPKVEGFDLADFWGNTFEVAIICQELAKRLGTLPEEAFTCGILHSIGELLIVNGDPAVAATISAAVADGADRNLMEKELLGYDNAEIGALLAQSWKFTPHLVKGIQFQNHPKSAEPYSKLAGMLAMAKQIAADWDKIPDDERTSWLAQINILAGIKVDLGGLAEKLAKMHGQGMEMGKQLA”, the protein production is reported as “not failed”.

Reference: a protein production outcome set (Wang et al. 2014)
